The target in one series is T1, alpha fetoprotein (AFP) (UniProt P02771 19-609).
T1 sequence: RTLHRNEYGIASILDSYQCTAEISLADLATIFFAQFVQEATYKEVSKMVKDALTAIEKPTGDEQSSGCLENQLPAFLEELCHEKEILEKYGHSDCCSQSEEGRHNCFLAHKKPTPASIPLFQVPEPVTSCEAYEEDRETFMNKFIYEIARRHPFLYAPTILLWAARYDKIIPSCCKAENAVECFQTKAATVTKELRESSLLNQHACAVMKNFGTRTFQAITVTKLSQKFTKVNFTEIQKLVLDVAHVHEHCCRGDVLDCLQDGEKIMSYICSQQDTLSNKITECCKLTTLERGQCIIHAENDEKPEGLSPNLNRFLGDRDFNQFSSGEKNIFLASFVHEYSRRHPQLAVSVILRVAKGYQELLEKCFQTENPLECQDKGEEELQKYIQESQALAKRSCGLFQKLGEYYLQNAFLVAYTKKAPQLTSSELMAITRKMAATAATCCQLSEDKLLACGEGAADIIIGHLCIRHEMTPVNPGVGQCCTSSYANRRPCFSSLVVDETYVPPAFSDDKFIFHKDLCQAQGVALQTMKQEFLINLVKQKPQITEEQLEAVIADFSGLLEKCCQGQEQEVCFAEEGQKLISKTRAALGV
In words: electrochemical aptasensor (MB peak current ratio); 10 ng/mL AFP; 0.01 M PBS (sodium phosphate) pH 7.4; BSA-blocked electrode; CEA incubation temperature and time not in the material. Particulars: protein: commercial.

The next series concerns the target T2, C-reactive protein (CRP) (UniProt P02741 19-224).
T2 sequence: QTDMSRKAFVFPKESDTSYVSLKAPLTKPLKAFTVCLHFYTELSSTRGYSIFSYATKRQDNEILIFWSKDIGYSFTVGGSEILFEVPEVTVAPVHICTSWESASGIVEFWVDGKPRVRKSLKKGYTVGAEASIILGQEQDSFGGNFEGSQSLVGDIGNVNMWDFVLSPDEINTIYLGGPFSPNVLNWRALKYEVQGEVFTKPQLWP
In words: electrochemical aptasensor (MB peak current ratio); 10 ng/mL CRP; 0.01 M PBS (sodium phosphate) pH 7.4; BSA-blocked electrode; CEA incubation temperature and time not in the material. Particulars: protein: commercial; chain copies: 5.

For series [1], the target named is carcinoembryonic antigen (CEA) (UniProt P06731 35-685). In words: electrochemical aptasensor (DPV, CV, EIS); 1 pg/mL-1 ug/mL CEA; LOD 0.22 pg/mL (not a Kd); 0.01 M PBS (sodium phosphate) pH 7.4; BSA-blocked electrode; CEA incubation temperature and time not in the material. As to conditions: protein: commercial.
Series [2] deals with prostate-specific antigen (PSA) (UniProt P07288 25-261). In words: electrochemical aptasensor (MB peak current ratio); 10 ng/mL PSA; 0.01 M PBS (sodium phosphate) pH 7.4; BSA-blocked electrode; CEA incubation temperature and time not in the material. Particulars: protein: commercial.
Series [3] has as its target cancer antigen 15-3 (CA15-3) (UniProt P15941 24-1097). Put plainly: electrochemical aptasensor (MB peak current ratio); 10 uU/mL CA15-3; 0.01 M PBS (sodium phosphate) pH 7.4; BSA-blocked electrode; CEA incubation temperature and time not in the material. Particulars: protein: commercial.

prostate-specific antigen (PSA), sequence (P07288 25-261): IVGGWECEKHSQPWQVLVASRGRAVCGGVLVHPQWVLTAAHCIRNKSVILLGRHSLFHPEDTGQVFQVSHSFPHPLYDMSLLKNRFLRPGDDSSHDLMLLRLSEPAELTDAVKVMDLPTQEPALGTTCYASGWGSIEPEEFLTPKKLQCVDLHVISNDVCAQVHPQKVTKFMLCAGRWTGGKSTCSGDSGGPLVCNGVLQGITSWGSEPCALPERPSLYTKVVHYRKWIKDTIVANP
carcinoembryonic antigen (CEA), sequence (P06731 35-685): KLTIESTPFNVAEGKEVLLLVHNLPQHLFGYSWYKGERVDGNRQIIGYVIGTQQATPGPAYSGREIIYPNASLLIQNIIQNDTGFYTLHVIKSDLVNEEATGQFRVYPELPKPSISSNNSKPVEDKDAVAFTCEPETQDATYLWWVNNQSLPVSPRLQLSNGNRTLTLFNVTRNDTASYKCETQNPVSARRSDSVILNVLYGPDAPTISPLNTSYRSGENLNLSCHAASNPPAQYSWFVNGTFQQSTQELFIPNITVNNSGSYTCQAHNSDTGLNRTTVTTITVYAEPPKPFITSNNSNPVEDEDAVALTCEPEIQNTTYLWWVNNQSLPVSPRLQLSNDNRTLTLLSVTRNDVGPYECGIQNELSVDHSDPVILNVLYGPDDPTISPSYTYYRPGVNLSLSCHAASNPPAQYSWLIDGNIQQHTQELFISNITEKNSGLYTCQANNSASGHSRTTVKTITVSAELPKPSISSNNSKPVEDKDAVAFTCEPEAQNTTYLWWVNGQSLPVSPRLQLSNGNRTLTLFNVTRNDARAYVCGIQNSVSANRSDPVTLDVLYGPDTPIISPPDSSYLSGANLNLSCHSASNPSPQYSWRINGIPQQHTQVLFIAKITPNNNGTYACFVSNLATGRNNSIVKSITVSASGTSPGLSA
cancer antigen 15-3 (CA15-3), sequence (P15941 24-1097): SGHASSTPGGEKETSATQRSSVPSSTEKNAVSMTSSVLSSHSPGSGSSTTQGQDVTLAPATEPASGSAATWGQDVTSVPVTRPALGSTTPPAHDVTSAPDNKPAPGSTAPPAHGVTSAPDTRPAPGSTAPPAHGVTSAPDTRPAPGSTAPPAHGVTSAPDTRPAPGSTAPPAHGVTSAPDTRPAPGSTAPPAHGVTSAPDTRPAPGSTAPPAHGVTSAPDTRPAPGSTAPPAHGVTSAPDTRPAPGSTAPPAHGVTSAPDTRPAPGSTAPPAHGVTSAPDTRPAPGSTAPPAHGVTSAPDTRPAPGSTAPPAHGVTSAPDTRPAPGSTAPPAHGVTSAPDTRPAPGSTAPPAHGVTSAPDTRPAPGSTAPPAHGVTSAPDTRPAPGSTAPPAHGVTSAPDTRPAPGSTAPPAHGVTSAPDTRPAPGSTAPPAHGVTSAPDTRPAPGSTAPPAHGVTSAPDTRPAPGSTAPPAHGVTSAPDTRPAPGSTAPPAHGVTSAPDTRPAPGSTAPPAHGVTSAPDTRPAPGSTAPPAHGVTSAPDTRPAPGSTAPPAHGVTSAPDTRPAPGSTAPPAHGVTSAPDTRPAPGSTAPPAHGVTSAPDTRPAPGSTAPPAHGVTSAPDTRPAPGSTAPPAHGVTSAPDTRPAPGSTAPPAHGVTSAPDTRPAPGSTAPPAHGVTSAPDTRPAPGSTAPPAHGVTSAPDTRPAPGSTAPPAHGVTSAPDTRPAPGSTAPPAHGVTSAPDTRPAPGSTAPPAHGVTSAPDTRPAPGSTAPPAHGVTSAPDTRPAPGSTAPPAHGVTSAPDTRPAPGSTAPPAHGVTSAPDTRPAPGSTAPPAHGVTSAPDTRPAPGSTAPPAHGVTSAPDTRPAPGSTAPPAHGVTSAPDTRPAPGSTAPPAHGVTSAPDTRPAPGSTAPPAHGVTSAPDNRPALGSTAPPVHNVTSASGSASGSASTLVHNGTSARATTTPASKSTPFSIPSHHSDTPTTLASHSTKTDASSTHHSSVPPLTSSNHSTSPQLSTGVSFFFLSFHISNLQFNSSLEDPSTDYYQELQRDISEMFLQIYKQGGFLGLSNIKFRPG

B1: CEA aptamer (ssDNA)
DNA: ATACAGCTTCAATT
modifications: 3'-NH2, immobilized via glutaraldehyde on amino-silica film
Turning to B1, the binding result with alpha fetoprotein (AFP) was “no binding”; in the series with C-reactive protein (CRP), “no binding”; in series [1] it was “binds”; in series [2], “no binding”; in series [3], “no binding”.

The record behind these values is article PMC10221436, “Reagentless Electrochemical Detection of Tumor Biomarker Based on Stable Confinement of Electrochemical Probe in Bipolar Silica Nanochannel Film”.
